Data on one protein can be found in publication PMC4323281 (Nature, 2014).

This series concerns the molecule itself. Kind of series: AUC.

B1: Archaeoglobus fulgidus alanyl-tRNA synthetase (AlaRS), wild-type, full-length (enzyme, UniProt O28029 1-906, looked up)
chain: MTLDEEYLDITFLTENGFVRKRCPKCGKHFWTADPEREICGDPPCESYSFIGNPVFKKPFELDEMREYYLNFFERRGHGRIERYPVVARWRTDIYLTIASIADFQPFVTSGVAPPPANPLTISQPCIRLDDLDSVGRTGRHLTLFEMMAHHAFNYPGKEIYWKNETVAYCTELLNELGVKKEDIVYKEEPWAGGGNAGPCLEAIVGGLEVATLVFMNLEEHPEGDIEIKGARYRKMDNYIVDTGYGLERFVWASKGTPTVYDAIFPEVVDTIIDNSNVSFNREDERVRRIVAESSKLAGIMGELRGERLNQLRKSVADTVGVSVEELEGIVVPLEKVYSLADHTRCILFMLGDGLVPSNAGAGYLARLMIRRSLRLAEELELGLDLYDLVEMHKKILGFEFDVPLSTVQEILELEKERYRTTVSKGTRLVERLVERKKKLEKDDLIELYDSHGIPVELAVGIAAEKGAEVEMPKDIYAELAKRHSKAEKVQEKKITLQNEYPATEKLYYDDPTLLEFEAEVIGVEGDFVILNRSAFYPESGGQDNDVGYLIANGGKFEVVDVLEADGVVLHVVKGAKPEVGTKVKGVIDSDVRWRHMRHHSATHVLLYSLQKVLGNHVWQAGARKEFSKARLDVTHFRRPSEEEIKEIEMLANREILANKPIKWEWMDRIEAERKFGFRLYQGGVPPGRKIRVVQVGDDVQACGGTHCRSTGEIGMLKILKVESIQDGVIRFEFAAGEAAIEAVEEMERLLREASSILRVEPAKLPKTVERFFEEWKDQRKEIERLKSVIADLWADILMERAEEFDSMKVVAEVVDADMQALQKLAERLAEKGAVGCLMAKGEGKVFVVTFSGQKYDARELLREIGRVAKGSGGGRKDVAQGAVQQLLDREEMLDVIFRFLSEHEG
Take B1: the stoichiometry N (usually a count of units in the complex or per binding partner) was determined as 2.
